Results: paper PMC9922296, “Mechanistic insights into RNA surveillance by the canonical poly(A) polymerase Pla1 of the MTREC complex” (Nature Communications, 2023)
“And” between values parts separate entries of the source, which are not always exact repeats. Identical values can stand only once. No end group written: not given here.

T1: Pla1RRM (C-terminal RRM domain of Pla1, residues 352-566) (S. pombe, UniProt Q10295 352-566)
T1 construct: Pla1, canonical poly(A) polymerase, S. pombe, C-terminal RRM domain, residues 352-566; also called Pla1 RRM domain; Pla1 CTD; source: E. coli BL21 (DE3) Rosetta2, purified (His-Trap, TEV cleavage, Resource Q, Superdex 200); not shown: His6, N-terminal, cleaved
T1 sequence (looked up): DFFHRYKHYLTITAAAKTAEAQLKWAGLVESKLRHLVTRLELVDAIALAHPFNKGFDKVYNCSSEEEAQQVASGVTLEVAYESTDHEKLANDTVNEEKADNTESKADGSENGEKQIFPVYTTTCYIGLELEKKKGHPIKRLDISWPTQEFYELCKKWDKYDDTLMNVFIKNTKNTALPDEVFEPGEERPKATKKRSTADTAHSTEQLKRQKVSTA

T2: Pla1RRM K368E (S. pombe, UniProt Q10295 352-566, K368E)
T2 construct: Pla1, S. pombe, C-terminal RRM domain, residues 352-566; source: E. coli BL21 (DE3) Rosetta2, purified (His-Trap, TEV cleavage, Resource Q, Superdex 200); not shown: His6, N-terminal, cleaved
T2 sequence (looked up): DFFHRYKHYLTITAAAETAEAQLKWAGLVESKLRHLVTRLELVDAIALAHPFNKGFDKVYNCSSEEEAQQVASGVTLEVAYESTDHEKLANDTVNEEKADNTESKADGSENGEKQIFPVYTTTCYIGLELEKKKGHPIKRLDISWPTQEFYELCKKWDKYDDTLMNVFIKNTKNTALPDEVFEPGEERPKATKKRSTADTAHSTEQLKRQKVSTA

T3: Pla1RRM EEQE (S. pombe, UniProt Q10295 352-566, K559/R560/Q561/K562 to EEQE)
T3 construct: Pla1, S. pombe, C-terminal RRM domain, residues 352-566; also called Pla1_(EEQE); K559/R560/Q561/K562 to EEQE; source: E. coli BL21 (DE3) Rosetta2, purified (His-Trap, TEV cleavage, Resource Q, Superdex 200); not shown: His6, N-terminal, cleaved
T3 sequence (looked up): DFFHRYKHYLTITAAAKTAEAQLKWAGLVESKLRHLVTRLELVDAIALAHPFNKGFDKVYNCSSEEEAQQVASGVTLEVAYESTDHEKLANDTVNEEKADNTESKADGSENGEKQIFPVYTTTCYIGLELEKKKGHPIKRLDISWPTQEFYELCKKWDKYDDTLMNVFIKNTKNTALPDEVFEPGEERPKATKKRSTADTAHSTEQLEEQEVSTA

T4: Pla1RRM EEE (S. pombe, UniProt Q10295 352-566, K544/K545/R546 to EEE)
T4 construct: Pla1, S. pombe, C-terminal RRM domain, residues 352-566; also called Pla1EEE; K544/K545/R546 to EEE; source: E. coli BL21 (DE3) Rosetta2, purified (His-Trap, TEV cleavage, Resource Q, Superdex 200); not shown: His6, N-terminal, cleaved
T4 sequence (looked up): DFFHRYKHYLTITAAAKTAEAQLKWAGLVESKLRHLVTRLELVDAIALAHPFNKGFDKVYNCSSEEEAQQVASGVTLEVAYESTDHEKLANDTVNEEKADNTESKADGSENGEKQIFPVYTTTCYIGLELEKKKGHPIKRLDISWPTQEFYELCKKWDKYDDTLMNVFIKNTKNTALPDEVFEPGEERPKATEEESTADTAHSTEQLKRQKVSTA


Legend:
Settings in all cases: both partners purified
[1] = molecular target: T1, Pla1RRM (C-terminal RRM domain of Pla1, …); assay: ITC; competition: Red1 288-345 titrated into Pla1RRM pre-incubated with a 1.1-fold molar excess of Iss1 30-76; 25 °C; 20 mM HEPES pH 7.5, 150 mM NaCl, 2 mM BME
Pla1RRM K368E = molecular target: T2, Pla1RRM K368E; assay: ITC; Red1 or Iss1 construct in the syringe (400-500 µM) titrated into Pla1RRM (wild type or mutant) in the cell (40-50 µM); 25 °C; 20 mM HEPES pH 7.5, 150 mM NaCl, 2 mM BME; one-binding site model; each independent measurement listed
[2] = molecular target: T1, Pla1RRM (C-terminal RRM domain of Pla1, …); assay: as above
Pla1RRM EEQE = molecular target: T3, Pla1RRM EEQE; assay: as above
Pla1RRM EEE = molecular target: T4, Pla1RRM EEE; assay: as above
[3] = molecular target: T1, Pla1RRM (C-terminal RRM domain of Pla1, …); assay: NMR titration; 1.5-fold molar excess of unlabelled Pla1RRM added to 0.3 mM 15N-labelled GB1-tagged Red1 constructs; 1H,15N-HSQC; 293 K; sodium phosphate pH 6.5, 100 mM NaCl
[4] = molecular target: T1, Pla1RRM (C-terminal RRM domain of Pla1, …); assay: ITC; control of the competition: Iss1 30-76 titrated into Pla1RRM pre-incubated with a 1.1-fold molar excess of Red1 288-345 W298A/F305A; 25 °C; 20 mM HEPES pH 7.5, 150 mM NaCl, 2 mM BME

| stoichiometry N [1] | Kd (Pla1RRM K368E) | stoichiometry N (Pla1RRM K368E) | Kd [2] | stoichiometry N [2] | Kd (Pla1RRM EEQE) | stoichiometry N (Pla1RRM EEQE) | Kd (Pla1RRM EEE) | stoichiometry N (Pla1RRM EEE) | binding result [3] | stoichiometry N [4] | Binder |
| --- | --- | --- | --- | --- | --- | --- | --- | --- | --- | --- | --- |
| 1.11 and 1.82 | 15.3 µM and 20.3 µM | 0.8 and 1 | 1.56 µM and 1.15 µM and 1.37 µM | 1.05 and 0.952 and 1.19 | 3.28 µM and 2.27 µM | 1.03 and 0.97 | 9.43 µM and 9.98 µM | 0.86 and 0.94 | – | – | Red1 288-345 (domain or fragment, S. pombe, source: E. coli BL21 (DE3), purified (His-Trap, TEV cleavage, second IMAC, Superdex 75); not shown: GB1, N-terminal, cleaved; His6, C-terminal, kept) ISLPLLKQDDWLSSSKPFGSSTPNVVIEFDSDDDGDDFSNSKIEQSNLEKPPSNSENG |
| – | – | – | – | – | – | – | – | – | binds | – | ISLPLLKQDDWLSSSKPFGSSTPNVVIEFDSDDDG (domain or fragment, S. pombe, not fully specified (N-terminus); also: 15N-labelled, source: E. coli BL21 (DE3), 15N-labelled in M9 minimal medium, purified; not shown: GB1, N-terminal, kept; His6, C-terminal, kept) [GB1-tagged Red1 288-322] |
| – | – | – | 2.11 µM and 2.94 µM | 1 | – | – | – | – | – | 0.97 and 1 | VSNAKSPEQASEESDDSDIEFIIETKPGERAEPLGGSIATLGSTRPS (domain or fragment, S. pombe, Iss1 (fission yeast orthologue of scFip1), S. pombe, residues 30-76; source: E. coli BL21 (DE3) Rosetta2, purified (His-Trap, TEV cleavage, second IMAC flow-through, Superdex 75); not shown: His-Thioredoxin, N-terminal, cleaved) [Iss1 30-76] |
